# Patent publication US20200353078A1 (AstraZeneca / MedImmune, published 2020)
# T1: Human IL-33 (Axxora/Alexis ALX-522-098) (human, UniProt O95760 112-270)
# T1 sequence (looked up): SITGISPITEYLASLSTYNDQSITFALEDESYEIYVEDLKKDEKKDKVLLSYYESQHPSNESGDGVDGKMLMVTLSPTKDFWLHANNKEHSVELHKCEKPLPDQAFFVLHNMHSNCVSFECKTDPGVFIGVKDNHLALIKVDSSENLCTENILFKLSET
# T2: Human IL-33 (Axxora/Adipogen AG-40B-0038) (human, UniProt O95760 112-270, limits assumed)
# T2 sequence (looked up): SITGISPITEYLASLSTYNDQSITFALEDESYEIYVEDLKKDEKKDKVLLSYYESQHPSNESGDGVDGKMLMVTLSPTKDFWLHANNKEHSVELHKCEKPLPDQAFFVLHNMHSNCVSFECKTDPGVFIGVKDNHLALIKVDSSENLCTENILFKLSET
# T3: Human IL-33 Flag®His (human)
# T3 construct: Mature IL-33 with C-terminal FLAG 10xHis tag, from E. coli; biotinylated via free cysteines where used biotinylated; also called Mature Human IL-33_FH; human IL-33 FH
# T3 chain: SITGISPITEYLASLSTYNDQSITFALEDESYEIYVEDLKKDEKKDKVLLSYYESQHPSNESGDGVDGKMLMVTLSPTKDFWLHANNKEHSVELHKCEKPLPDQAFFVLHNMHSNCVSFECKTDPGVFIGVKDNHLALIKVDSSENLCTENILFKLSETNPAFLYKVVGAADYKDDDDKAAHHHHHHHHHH
# T4: Mouse IL-33 Flag®His (mouse)
# T4 construct: C-terminal FLAG 10xHis tag, E. coli; also called Mature Mouse IL-33_FH; mouse IL-33 FH
# T4 chain: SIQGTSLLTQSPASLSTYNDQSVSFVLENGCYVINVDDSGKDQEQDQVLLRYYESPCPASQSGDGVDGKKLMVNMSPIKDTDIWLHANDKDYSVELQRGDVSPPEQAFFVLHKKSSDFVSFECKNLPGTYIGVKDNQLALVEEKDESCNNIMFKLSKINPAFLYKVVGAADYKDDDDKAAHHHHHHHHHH
# T5: Cynomolgus IL-33 Flag®His (cynomolgus monkey)
# T5 construct: C-terminal FLAG 10xHis tag, E. coli; also called Mature Cynomolugus IL-33; cyno IL-33 FH
# T5 chain: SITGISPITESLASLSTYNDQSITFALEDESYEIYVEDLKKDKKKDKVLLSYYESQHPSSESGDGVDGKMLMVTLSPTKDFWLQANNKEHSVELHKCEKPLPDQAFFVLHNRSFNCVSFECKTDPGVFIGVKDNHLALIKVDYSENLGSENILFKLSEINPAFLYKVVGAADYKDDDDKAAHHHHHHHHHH
# T6: Human ST2-Fc (R&D Systems, or source not stated in the example) (human, UniProt Q01638 19-328)
# T6 construct: extracellular domain; also called sST2.Fc; sST2
# T6 sequence (looked up): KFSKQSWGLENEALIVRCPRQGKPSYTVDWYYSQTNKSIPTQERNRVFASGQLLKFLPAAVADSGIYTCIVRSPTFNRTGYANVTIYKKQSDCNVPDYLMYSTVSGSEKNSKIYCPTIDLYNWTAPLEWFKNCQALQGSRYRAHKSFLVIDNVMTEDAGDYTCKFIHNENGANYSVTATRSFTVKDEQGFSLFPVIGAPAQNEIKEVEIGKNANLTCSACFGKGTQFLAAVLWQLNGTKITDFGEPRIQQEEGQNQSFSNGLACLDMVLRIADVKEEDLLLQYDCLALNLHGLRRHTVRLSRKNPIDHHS
# Experiments:
# [1] = molecular target: T1, Human IL-33 (Axxora/Alexis ALX-522-098); experiment: cell-based or functional assay
# [2] = molecular target: T2, Human IL-33 (Axxora/Adipogen …); experiment: cell-based or functional assay
# Human IL-33 Flag®His [3] = molecular target: T3, Human IL-33 Flag®His; experiment: BIAcore 2000 solution affinity, 48 h equilibration at 25 C, free IgG read on biotinylated IL-33 chip
# Method: The binding affinity of purified IgG samples of exemplary binding members to human, cynomolgus or mouse IL-33 was determined by solution affinity using a BIAcore 2000 (GE healthcare). A biotinylated-IL33 surface was immobilised on a streptavin coated sensor chip (GE healthcare cat. No. BR-1000-32). Anti-IL33 antibodies were incubated with various concentrations of unlabelled IL33 and equilibrated at 25° C. for 48 hours. The amount of free antibody was determined by flowing the samples over the IL33 chip and measuring the response compared to a standard curve of antibody. Affinities were determined using the solution affinity fit in BIAevaluation software. The affinities for antibodies IL330101, H338L293, IL330388, IL330396 binding to human, cynomolgus or mouse IL-33 are shown in Table 15.
# Mouse IL-33 Flag®His [4] = molecular target: T4, Mouse IL-33 Flag®His; experiment: ELISA, biotinylated antigen on streptavidin plate, anti-human IgG HRP
# Method: (§1) 96-well Greiner polypropylene plates (Greiner, 650201) were used for dilution preparation. Generally, each dilution was prepared in duplicate. IgG dilutions were allowed to block in PBS-M for 1 hour at room temperature before being used directly in ELISA experiments.
# (§2) Streptavidin plates (Thermo Scientific, AB-1226) were coated with biotinylated antigen at 0.5 μg/ml in PBS and incubated overnight at 4° C. Plates were washed 3× with PBS and blocked with 300 μl/well blocking buffer (PBS-M) for 1 hour. Plates were washed 1× with PBS and blocked samples added, 50 μl/well for 1 hour at room temperature. […] Plates were washed 3× with PBS-T and developed with TMB, 50 μl/well (Sigma, T0440). The reaction was quenched with 50 μl/well 0.1M H2504 before reading on an EnVision™ plate reader, or similar equipment, at 450 nm.
# (§3) Species cross-reactivity of anti-IL-33 antibodies was determined using a plate-based ELISA. Streptavidin plates (Thermo Scientific, AB-1226) were coated with biotinylated antigen at 0.5 μg/ml in PBS. Binding of purified IgG preparations was detected with anti-human IgG HRP (Sigma, A0170).
# [5] = molecular target: T5, Cynomolgus IL-33 Flag®His; experiment: as above
# Method: as §1, §2, §3
# Human IL-33 Flag®His [6] = molecular target: T3, Human IL-33 Flag®His; experiment: as above
# Method: as §1, §2, §3
# [7] = molecular target: T2, Human IL-33 (Axxora/Adipogen …); experiment: cell-based or functional assay; remark: listed apart in the source
# [8] = molecular target: T2, Human IL-33 (Axxora/Adipogen …); experiment: cell-based or functional assay; remark: listed apart in the source
# Mouse IL-33 Flag®His [9] = molecular target: T4, Mouse IL-33 Flag®His; experiment: ELISA, biotinylated antigen on streptavidin plate, purified IgG
# Method: as §2, §3
# [10] = molecular target: T6, Human ST2-Fc (R&D Systems, or source …); experiment: SPR BIAcore 2000, ST2 captured via Fc-tag on anti-human Fc, IL-33 7.8 nM to 0.24 nM as analyte, 1:1 Langmuir
# Method: The disulphide bonded IL-33 is likely a very different structure to the reduced, ST2-binding IL-33 form (FIG. 22, 23), and conversion to the disulphide bonded form was associated with loss of functional activity (FIG. 17C). To investigate this, the disulphide bonded form of IL-33 was tested for ability to bind ST2 by BIAcore analysis. Direct binding of IL-33 to the extracellular domain of ST2 was determined by Surface Plasmon Resonance using a BIAcore 2000 (GE healthcare). ST2 was immobilised via the Fc-tag using an anti-human Fc capture (GE healthcare BR-1003-39) on a CM5 sensor chip (GE healthcare BR-1003-99) to give a stable surface of approximately 150 RU. IL-33 was flowed over the surface at 30 ul/min for three minutes to determine association rates. Dissociation was measured by flowing buffer at 30 ul/min for 15 minutes. Sensorgrams were interpreted using BIAevaluation software and kinetics were determined using double reference subtracted sensorgrams using a 1:1 (Langmuir) binding model.
# [11] = molecular target: T7, H338L293 (SEQ ID NOs 182 and 187); experiment: Biacore T100, IgG captured on Protein G', 0.625-20 nM peptide as analyte, 1:1 fit
# T7 construct: IgG; also called H338L293_fgl; H338L293 IgG
# T7 sequence (VL, as listed by the source): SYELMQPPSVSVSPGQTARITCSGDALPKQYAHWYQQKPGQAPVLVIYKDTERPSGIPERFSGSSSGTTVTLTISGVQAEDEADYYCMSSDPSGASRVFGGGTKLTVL
# Text: The identified peptide together with a truncate ([…]) and scrambled variants of both, were then chemically synthesised and used in confirmatory T100 Biacore (GE Healthcare) binding studies. Protein G′ (Sigma Aldrich, P4689) was covalently coupled to the surface of a CM5 sensor chip (GE Healthcare) using standard amine coupling reagents according to manufacturer's instructions. The protein G′ surface was used to capture H338L293 or ST2-Fc via the Fc domain to provide a surface density of approximately 290 RU per cycle. IL33 peptides prepared in HBS-EP+ buffer, at a range of concentrations were passed over the sensor chip surface. The surface was regenerated using two 10 mM Glycine washes of pH 1.7 and pH 1.5 between each injection of antibody. The resulting sensorgrams were evaluated using Biacore T100 evaluation software 2.0.3 (GE Healthcare) and fitted to a 1:1 Langmuir binding model, to provide relative binding data.
binder,measurement,setting,value
"IL330101 IgG (antibody, V domains shown, IgG1 or IgG1-TM; also called mAb IL330101; IL3300101) VH: EVQLLESGGGLVQPGGSLRLSCAASGFTFSSYAMSWVRQAPGKGLEWVSAISGSGGSTYYADSVKGRFTISRDNSKNTLYLQMNSLRAEDTAVYYCVRVVAGYFDSWGRGTLVTVSS VL: SYVLTQPPSVSVSPGQTARITCSGDALPKQYAHWYQQKPGQAPALVIYKDTERPSGIPERFSGSSSGTTVTLTISGVQAEDEADYYCQSADSSGASRVFGGGTKVTVL","IC50, TF-1 proliferation",[1],149 nM
same,"IC50 (geomean), Huvec IL-6 production",[2],497 nM
same,"IC50 (geomean), Mast cell IL-6 production",[2],49 nM
same,Kd,Human IL-33 Flag®His [3],0.0032 pM
same,EC50,Mouse IL-33 Flag®His [4],0.85 nM
same,EC50,[5],1.2 nM
same,EC50,Human IL-33 Flag®His [6],1.19 nM
same,"Huvec IL-6 production, maximum inhibition",[7],~70%
same,"Mast cell IL-6 production, inhibition",[7],100%
same,"IC50, Huvec IL-6 production",[8],193 nM
same,"IC50, Mast cell IL-6 production",[8],93 nM
"IL330065 IgG (antibody, V domains shown, IgG1 or IgG1-TM (L234F, L235E, P331S); functional data combine both formats) VH: EVQLVQSGAEVKKPGTAVKISCKASGYTFTDYYIHWVQQAPGKGLEWMGLVDPEDGETKYAEKFQGRVSITADTSTDTAYMELRSLTSEDTAVYFCTMGWAQWGRGTLVTVSS VL: QSVLTQPPSASGTPGQRVTISCSGSSSNIGSNYVYWYQQVPGTAPKLVIYRDFQRPSGVPDRFSGSKSGNSASLVISGLRSEDEGEYVCAAWDDSLTGPRFGGGTKVTVL","IC50 (geomean), TF-1 proliferation",[1],81 nM
same,"IC50 (geomean), Huvec IL-6 production",[2],87 nM
same,"IC50 (geomean), Mast cell IL-6 production",[2],12 nM
same,binding result,Mouse IL-33 Flag®His [9],no binding
same,EC50,[5],0.66 nM
same,EC50,Human IL-33 Flag®His [6],0.65 nM
"redIL-33 (detagged human IL33-01, BK349) (ligand, UniProt O95760 112-270, looked up, Reduced form; also called reduced IL-33; Human IL33-01 detagged) SITGISPITEYLASLSTYNDQSITFALEDESYEIYVEDLKKDEKKDKVLLSYYESQHPSNESGDGVDGKMLMVTLSPTKDFWLHANNKEHSVELHKCEKPLPDQAFFVLHNMHSNCVSFECKTDPGVFIGVKDNHLALIKVDSSENLCTENILFKLSET",Kd,[10],0.2 nM
LSPTKDFWLHANNKEHSVELHK (Chemically synthesised; also called truncate peptide) [Truncated IL-33 epitope peptide],Kd,[11],2.36 nM
